Our source for the Km, kcat and kcat/Km values is article PMC4949581.

Substrate in series [1]: O=[N+]([O-])c1ccc(O[C@@H]2O[C@H](CO)[C@@H](O)[C@H](O)[C@H]2O)cc1
The series is described as follows: purified protein. To be noted: 60.0 °C.

Substrate in series [2]: OC[C@H]1O[C@@H](O[C@H]2[C@H](O)[C@@H](CO)OC(O)[C@@H]2O)[C@H](O)[C@@H](O)[C@@H]1O
The series is described as follows: purified protein. Particulars: 60.0 °C.

B1: TxGH116 β-glucosidase (Thermoanaerobacterium xylanolyticum LX-11) (protein)
chain: LTGCSEKININEDKISHKIDIPDSAWTIGIGEKFKNAGHPNVKYPMIDDSYVQGAPLGGFGAGTIGRTYNGGFSRWHLEIGKNKYTTVYANQFSVFQKVEGNKDGVAQVLYAGEPENGYLSSWKWDYPKESGMYYALYPNSWYTYTNKDLPVQLAVKQFSPIIPYNYKETSYPVAVFKWTAYNPTNKNVDVSIMFTWQNMIGFFGKQVNVNSGNFNKIIKDKSKDSEIVAAVMGNISNDNEEWNGEYSIGVKKVPGVDISYKAKFVTTGDGSDLWHEFSKNGILDNKDDETPTKQDGIGSAIAVNFKLQPGQTIEVPFALSWDLPIMKFGGGDKWYKMYTKYFGKNGKNSFAILKEALNNYQKWEKMIDDWQKPILSNKSKPDWYKTALFNELYYLADGGTAWENGKVGEKDKRTNNMFGLLECFDYNYYETLDVRFYGSFPLVMLWPDIEKQVMRQFADTINVQDSSEFKVGSNGAMAVKKVQGMIPHDLGSSYALPWIKINAYDWQNPNIWKDLNSKYVLLVYRDYVLTGKTDKEFLKYTWKSVKTALDKLKEMDKDNDGIPDNEGIPDQTYDTWSMKGTSAYCGSLWLAALKAAQEIGKVLKDNEAYIKYNEWYKIAQQNFEKELWNGEYYNFDTESDHKDSIMADQLAGQWYADILRLGDILPKDHVQKALKKIYEFNVMKFENGKMGAVNGMRPDGIVDESDIQAQEVWTGVTYALASFMKYRGMTEEAYNTAYGVYKMTYDKSGKGYWFRTPEAWTKDGNYRASMYMRPLSIWSMEVNYNEV
Regarding B1, in the series “purified protein [1]”, the Km is 0.18 ± 0.008 mM, the kcat was determined as 49 ± 0.8 s⁻¹ and the kcat/Km amounted to 272000 M⁻¹ s⁻¹. In addition, in “purified protein [2]”, the Michaelis-Menten constant (Km) was found to be 0.27 ± 0.018 mM, the kcat came to 41.4 ± 0.7 s⁻¹ and the catalytic efficiency (kcat/Km) amounted to 153000 M⁻¹ s⁻¹.
